{"source": "the supplement of paper PMC12042874", "assay": "amyloid nucleation score (Sup35N fusion, yeast selection) (log enrichment); library NNK2; higher = more nucleation; inactive = no reads after selection", "procedure,_shortened": "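Random libraries were run with three technical output replicates. In each, psi-negative yeast expressing Sup35N fused to peptides of 20 random codons were induced 24 hours with 100 μM copper sulfate and grown 7 days at 30°C on medium lacking adenine and uracil, and input and output plasmid inserts were Illumina-sequenced. The nucleation score is the DiMSum log enrichment of output over input reads, centred on the mode score of non-aggregating sequences, and sequences under 100 input reads were excluded.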", "note": "± gives the uncertainty stated by the source.", "data": [{"substance": "SGTDHNRMYF", "values": [{"measurement": "amyloid nucleation score", "result": "0.312 ± 0.57"}]}, {"substance": "YLHHIRCGYWVVVFVSTGSA", "values": [{"measurement": "amyloid nucleation score", "result": "-0.252 ± 0.41"}]}, {"substance": "TFRWCHCYLTKEHVRFTCRA", "values": [{"measurement": "amyloid nucleation score", "result": "1.55 ± 0.53"}]}, {"substance": "RMVLSGNLLQRNRNYPNQRM", "values": [{"measurement": "amyloid nucleation score", "result": "2.03 ± 0.079"}]}, {"substance": "SSAWLDLDIMLGLFVIVFTP", "values": [{"measurement": "amyloid nucleation score", "result": "5.439 ± 0.044"}]}, {"substance": "IYKGTASIISCRWGWSVRHW", "values": [{"measurement": "amyloid nucleation score", "result": "-0.573 ± 0.79"}]}, {"substance": "VNYHLFVYAQWIVRKGFILL", "values": [{"measurement": "amyloid nucleation score", "result": "-0.78 ± 0.44"}]}, {"substance": "LGGVSSHSELMPRVKVNWLT", "values": [{"measurement": "amyloid nucleation score", "result": "inactive"}]}, {"substance": "NCYGVVYSLCNMEVLSMWHE", "values": [{"measurement": "amyloid nucleation score", "result": "7.723 ± 0.036"}]}, {"substance": "SCAGSWNNKGGSKLQWDFLV", "values": [{"measurement": "amyloid nucleation score", "result": "-1.82 ± 0.75"}]}, {"substance": "TWFCVGKVASSMWVYQGVNF", "values": [{"measurement": "amyloid nucleation score", "result": "0.662 ± 0.52"}]}, {"substance": "PCRLHLAWIVSLMT", "values": [{"measurement": "amyloid nucleation score", "result": "4.21 ± 0.067"}]}, {"substance": "LDVIDGYWTGRMTSSFSWMN", "values": [{"measurement": "amyloid nucleation score", "result": "0.679 ± 0.47"}]}, {"substance": "EGNYFSGIS", "values": [{"measurement": "amyloid nucleation score", "result": "-1.2 ± 0.48"}]}, {"substance": "WYALARCYCDGPFSGGWFRM", "values": [{"measurement": "amyloid nucleation score", "result": "-0.022 ± 0.27"}]}, {"substance": "IAVRMALGLENNKFFLIVHK", "values": [{"measurement": "amyloid nucleation score", "result": "-1.44 ± 0.55"}]}, {"substance": "DWCPTCIWRICSHVTQSWSS", "values": [{"measurement": "amyloid nucleation score", "result": "6.325 ± 0.055"}]}, {"substance": "DDIFNWFGVLGSNPLMVSVG", "values": [{"measurement": "amyloid nucleation score", "result": "0.811 ± 0.33"}]}, {"substance": "NILVLLVTGVTLGR", "values": [{"measurement": "amyloid nucleation score", "result": "4.11 ± 0.059"}]}, {"substance": "YLNCDSFMRSVVYFNLWDIG", "values": [{"measurement": "amyloid nucleation score", "result": "-1.57 ± 0.75"}]}, {"substance": "SLSNVLINCVLVFCW", "values": [{"measurement": "amyloid nucleation score", "result": "6.53 ± 0.076"}]}, {"substance": "SVIEISECLERVVRWHRVAG", "values": [{"measurement": "amyloid nucleation score", "result": "1.76 ± 0.33"}]}, {"substance": "TFKFWCVTKETEQHVSYASR", "values": [{"measurement": "amyloid nucleation score", "result": "4.54 ± 0.067"}]}, {"substance": "VTVLTGVG", "values": [{"measurement": "amyloid nucleation score", "result": "4.79 ± 0.058"}]}, {"substance": "FCVAGQLLVS", "values": [{"measurement": "amyloid nucleation score", "result": "0.228 ± 0.25"}]}, {"substance": "RCEFSACMCGVCGAYKCMRF", "values": [{"measurement": "amyloid nucleation score", "result": "5.3 ± 0.064"}]}, {"substance": "YSFNALRRY", "values": [{"measurement": "amyloid nucleation score", "result": "0.632 ± 0.25"}]}, {"substance": "GSCRHHRWGLVRGMFCVSAL", "values": [{"measurement": "amyloid nucleation score", "result": "1.17 ± 0.42"}]}, {"substance": "QRMTNMSF", "values": [{"measurement": "amyloid nucleation score", "result": "-1.27 ± 1"}]}, {"substance": "KMPWMTCSHVTFTRIHSKIS", "values": [{"measurement": "amyloid nucleation score", "result": "-0.57 ± 0.48"}]}, {"substance": "VKREVLP", "values": [{"measurement": "amyloid nucleation score", "result": "0.117 ± 0.37"}]}, {"substance": "LLYYPIDGQGDGWLWCVYRV", "values": [{"measurement": "amyloid nucleation score", "result": "-0.067 ± 1.1"}]}, {"substance": "AFLRFMKRRQLNLLKYAFCC", "values": [{"measurement": "amyloid nucleation score", "result": "4.01 ± 0.084"}]}, {"substance": "WNVWVYLAAAVSGGGPTCVS", "values": [{"measurement": "amyloid nucleation score", "result": "4.72 ± 0.076"}]}, {"substance": "AIRADTDFDYTIEGSVDGGG", "values": [{"measurement": "amyloid nucleation score", "result": "-0.199 ± 0.63"}]}, {"substance": "SNVYYRVC", "values": [{"measurement": "amyloid nucleation score", "result": "4.72 ± 0.084"}]}, {"substance": "RREDKLICRFIDVNLEVDW", "values": [{"measurement": "amyloid nucleation score", "result": "2.72 ± 0.066"}]}, {"substance": "IFIMQTHFTGRVCPSSVKLP", "values": [{"measurement": "amyloid nucleation score", "result": "4.99 ± 0.066"}]}, {"substance": "DVLIRKWIIWDASNLQWMAI", "values": [{"measurement": "amyloid nucleation score", "result": "0.144 ± 0.36"}]}, {"substance": "FPNKITVIPSHTSRDNVNTL", "values": [{"measurement": "amyloid nucleation score", "result": "0.261 ± 0.49"}]}, {"substance": "GKRFNFVTCPPVLRR", "values": [{"measurement": "amyloid nucleation score", "result": "-0.088 ± 0.34"}]}, {"substance": "NNWVAAHSLS", "values": [{"measurement": "amyloid nucleation score", "result": "inactive"}]}, {"substance": "MYEFQPRLDHRLFRYICMNV", "values": [{"measurement": "amyloid nucleation score", "result": "-0.018 ± 1.1"}]}, {"substance": "IQWFIWN", "values": [{"measurement": "amyloid nucleation score", "result": "6.806 ± 0.027"}]}, {"substance": "SMRVECF", "values": [{"measurement": "amyloid nucleation score", "result": "-1.82 ± 1.1"}]}, {"substance": "LSWYDLSVQWNLYNIVGRRV", "values": [{"measurement": "amyloid nucleation score", "result": "2.06 ± 0.078"}]}, {"substance": "KVRLGTLTYICYANSNRLCP", "values": [{"measurement": "amyloid nucleation score", "result": "2.37 ± 0.12"}]}, {"substance": "HLSCKVIENGLWTSFCFKQE", "values": [{"measurement": "amyloid nucleation score", "result": "-1.04 ± 0.54"}]}, {"substance": "ILSPTSL", "values": [{"measurement": "amyloid nucleation score", "result": "1.26 ± 0.52"}]}, {"substance": "YLFKPSPTSHYCAFCTVYRN", "values": [{"measurement": "amyloid nucleation score", "result": "3.84 ± 0.079"}]}, {"substance": "CSAITEGCKGFVHDVSGVML", "values": [{"measurement": "amyloid nucleation score", "result": "-0.27 ± 0.56"}]}, {"substance": "TLLYKFTDCTVMMAIRVARR", "values": [{"measurement": "amyloid nucleation score", "result": "1.45 ± 0.52"}]}, {"substance": "LNDNSIGSVILFFSAFLLFY", "values": [{"measurement": "amyloid nucleation score", "result": "2.92 ± 0.12"}]}, {"substance": "VGRIEGHFYRSDCRQTYLYQ", "values": [{"measurement": "amyloid nucleation score", "result": "-0.785 ± 0.74"}]}, {"substance": "GVVGSFPRPTSSRGRLDYCN", "values": [{"measurement": "amyloid nucleation score", "result": "-0.169 ± 0.55"}]}, {"substance": "EQHIDSAMENFSDHDIVMLG", "values": [{"measurement": "amyloid nucleation score", "result": "4.76 ± 0.064"}]}, {"substance": "SATRDYHRLWCVVRLLLNAA", "values": [{"measurement": "amyloid nucleation score", "result": "0.342 ± 0.46"}]}, {"substance": "SVCVWAYACRDRTPLLGRFC", "values": [{"measurement": "amyloid nucleation score", "result": "0.508 ± 0.56"}]}, {"substance": "REQYPYINQHRP", "values": [{"measurement": "amyloid nucleation score", "result": "2.52 ± 0.14"}]}, {"substance": "YSFLWSVTATFDVTIISGCA", "values": [{"measurement": "amyloid nucleation score", "result": "3.1 ± 0.05"}]}, {"substance": "DVSSPVPGRGQCCVDGCWEF", "values": [{"measurement": "amyloid nucleation score", "result": "6.153 ± 0.059"}]}, {"substance": "CNTDDWK", "values": [{"measurement": "amyloid nucleation score", "result": "0.496 ± 0.66"}]}, {"substance": "LVKVHSISMLINSYLGEFCL", "values": [{"measurement": "amyloid nucleation score", "result": "0.045 ± 0.79"}]}, {"substance": "LGVCICPCRAPEMKDTSHDA", "values": [{"measurement": "amyloid nucleation score", "result": "4.92 ± 0.076"}]}, {"substance": "LEVHKGGLNVLSHEGLDVET", "values": [{"measurement": "amyloid nucleation score", "result": "1.19 ± 0.4"}]}, {"substance": "DNLVCCSCSHLIVWTLSVGA", "values": [{"measurement": "amyloid nucleation score", "result": "9.548 ± 0.035"}]}, {"substance": "SLPCRIISNLYLPA", "values": [{"measurement": "amyloid nucleation score", "result": "-1.23 ± 1.1"}]}, {"substance": "MASSPSVSIIKLFFGVEGLS", "values": [{"measurement": "amyloid nucleation score", "result": "-0.681 ± 1"}]}, {"substance": "RGRLMCSYLILNFCRSG", "values": [{"measurement": "amyloid nucleation score", "result": "3.04 ± 0.12"}]}, {"substance": "CMIIKGCTVWVVRP", "values": [{"measurement": "amyloid nucleation score", "result": "9.469 ± 0.055"}]}, {"substance": "ILSNMGSMVFTLCNRDSMLR", "values": [{"measurement": "amyloid nucleation score", "result": "-0.523 ± 1"}]}, {"substance": "REDGSPVGLLGGDHWVDFAQ", "values": [{"measurement": "amyloid nucleation score", "result": "1.38 ± 0.19"}]}, {"substance": "SISLEIHTAGTGKSRLPFYS", "values": [{"measurement": "amyloid nucleation score", "result": "5.67 ± 0.073"}]}, {"substance": "MSVTWYLGNWVTVL", "values": [{"measurement": "amyloid nucleation score", "result": "-1.09 ± 0.79"}]}, {"substance": "IKTRKHSGIMAC", "values": [{"measurement": "amyloid nucleation score", "result": "0.552 ± 0.32"}]}, {"substance": "NKEKN", "values": [{"measurement": "amyloid nucleation score", "result": "2.58 ± 0.13"}]}, {"substance": "GFRFLLKLLFGFKKV", "values": [{"measurement": "amyloid nucleation score", "result": "inactive"}]}, {"substance": "CSFSIAFWKS", "values": [{"measurement": "amyloid nucleation score", "result": "0.714 ± 0.3"}]}, {"substance": "ESIYLVGICGSSG", "values": [{"measurement": "amyloid nucleation score", "result": "0.247 ± 1"}]}, {"substance": "ANLLKTRRVMYRGFG", "values": [{"measurement": "amyloid nucleation score", "result": "0.611 ± 0.38"}]}, {"substance": "WLLWNSECIANCAFTRYSMF", "values": [{"measurement": "amyloid nucleation score", "result": "-0.079 ± 0.33"}]}, {"substance": "LYVVIIPSEAIHVTKSSHGI", "values": [{"measurement": "amyloid nucleation score", "result": "inactive"}]}, {"substance": "GNTGSGSDSKLYLAMP", "values": [{"measurement": "amyloid nucleation score", "result": "-0.076 ± 0.79"}]}, {"substance": "FQWQLMVFSADEFQNMAHMI", "values": [{"measurement": "amyloid nucleation score", "result": "0.182 ± 0.79"}]}, {"substance": "CGFHYFFRSTGYMAVAIIIR", "values": [{"measurement": "amyloid nucleation score", "result": "inactive"}]}]}
